According to patent publication US20190343964A1 (SHIZUOKA PERFECTURE, published 2019):

T1: B7-H4 expressed on the membrane surface of cancer cells (human, UniProt Q7Z7D3 25-282)
T1 sequence (looked up): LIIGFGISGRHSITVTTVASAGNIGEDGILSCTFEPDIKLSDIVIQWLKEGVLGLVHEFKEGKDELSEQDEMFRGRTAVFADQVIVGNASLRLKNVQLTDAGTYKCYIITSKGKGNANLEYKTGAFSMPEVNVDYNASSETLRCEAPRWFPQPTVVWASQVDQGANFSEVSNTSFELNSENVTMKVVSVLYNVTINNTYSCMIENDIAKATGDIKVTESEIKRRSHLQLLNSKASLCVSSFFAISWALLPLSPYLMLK

T2: soluble human B7-H4 recombinant protein (human, UniProt Q7Z7D3 25-259)
T2 construct: also called a free form of B7-H4
T2 sequence: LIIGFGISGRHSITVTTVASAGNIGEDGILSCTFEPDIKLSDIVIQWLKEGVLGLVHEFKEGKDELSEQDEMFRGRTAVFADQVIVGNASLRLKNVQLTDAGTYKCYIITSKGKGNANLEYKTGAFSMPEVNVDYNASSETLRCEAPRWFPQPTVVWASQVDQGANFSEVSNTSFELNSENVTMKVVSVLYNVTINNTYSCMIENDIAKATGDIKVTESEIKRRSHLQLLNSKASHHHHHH

B1: Fab-scFv according to the present invention (bispecific antibody)
heavy: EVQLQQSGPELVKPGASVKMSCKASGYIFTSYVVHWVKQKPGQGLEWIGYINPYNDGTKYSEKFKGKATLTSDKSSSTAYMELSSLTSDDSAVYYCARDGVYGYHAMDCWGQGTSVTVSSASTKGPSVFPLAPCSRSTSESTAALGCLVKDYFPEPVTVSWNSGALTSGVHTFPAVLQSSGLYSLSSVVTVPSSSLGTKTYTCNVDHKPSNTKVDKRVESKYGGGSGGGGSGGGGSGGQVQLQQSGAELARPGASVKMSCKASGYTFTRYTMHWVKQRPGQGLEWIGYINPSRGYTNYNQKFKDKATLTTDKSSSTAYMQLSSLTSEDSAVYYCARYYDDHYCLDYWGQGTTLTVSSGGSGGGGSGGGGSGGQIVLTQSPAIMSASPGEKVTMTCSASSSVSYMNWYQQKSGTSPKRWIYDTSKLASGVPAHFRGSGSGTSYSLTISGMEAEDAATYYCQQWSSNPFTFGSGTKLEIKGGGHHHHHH
light: NIQMTQSPSSLAVSAGEKVTMSCKSSHAVLYSSNQKNYLAWYQQKPGQSPKLLIYWASTRDSGVPDRFTGGGSGTDFTLTITNIQPEDLAVYYCHQYLSSWTFGGGTKVEIKRTVAAPSVFIFPPSDEQLKSGTASVVCLLNNFYPREAKVQWKVDNALQSGNSQESVTGQDSKDSTYSLSSTLALSKADYEKHKVYACEVTHQGLSSPVTKSFNRGEC
B2: H4.018 (antibody)
chain 1: EVKLVESGGGLVKPGGSLKLSCAASGFTFSSYAMSWVRQTPEKRLEWVATISSGGNYTYYPDSVKGRFTISRDNAKNTLYLQMSSLRSEDTAMYYCARHRYDNNYDYYAMD
chain 2: NIQMTQSPSSLAVSAGEKVTMSCKSSHAVLYSSNQKNYLAWYQQKPGQSPKLLIYWASTRDSGVPDRFTGGGSGTDFTLTITNIQPEDLAVYYCHQYLSSWTFGGGTKVEIK
B3: H4.209 (antibody, V domains shown)
VH: EVKLVESGGGLVKPGGSLKLSCAASGFTFSNYALSWVRQTPEKRLEWVASISGGGSTYYPDSVKGRFIISRDNARNILYLQMSSLRSEDTAMYYCARGPSYDDYYFDVWG
VL: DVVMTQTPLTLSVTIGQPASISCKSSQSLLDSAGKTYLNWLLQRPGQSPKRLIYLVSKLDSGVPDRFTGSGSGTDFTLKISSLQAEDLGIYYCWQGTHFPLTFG
notes: Mouse hybridoma monoclonal antibody; also called anti-B7-H4 monoclonal antibody produced from hybridoma clone #209
B4: H4.051 (antibody, V domains shown)
VH: EVQLQQSGAELVRSGASVKLSCTASGFNIKDFYVHWVKQRPEQGLEWIGWIDPAHVDTEYAPKFQGKTTMTADTSSNTAYLQLSSLTSEDSAVYYCNALLPRTMDYWG
VL: DVVLTQTPLSLPVNVGDQASISCKSTKSLLNSDGFTYLDWYLQKPGQSPQLLIYLVSNRFSGVPDRFSGSGSGTDFTLKISRVEAEDLGVYYCFQSNYLPYTFG
notes: Mouse hybridoma monoclonal antibody; also called anti-B7-H4 monoclonal antibody produced from hybridoma clone #51
B5: H4.121 (antibody, V domains shown)
VH: QVQLQQSGAELMKPGASVKISCKATGYTFSSYWIEWVKQRPGHGLEWIGEILHGSDSTNYNENFKGKATFTADTSSNTAYMRLSSLTSEDSAVYYCASHYYGSSPFAYWG
VL: not shown
notes: Mouse hybridoma monoclonal antibody; also called anti-B7-H4 monoclonal antibody produced from hybridoma clone #121
B6: H4.140 (antibody, V domains shown)
VH: EVQLVESGGDLVKPGGSLKLSCAASGFTFSTYGMSWVRQTPDKRLEWVATISSGGNYTYYPDSVKGRFTISRDNAKNTLYLQMSSLKSEDTAMYYCARPYGNHFDYWG
VL: DIQMTQSPASLAASVGETVTITCRASENIYYSLAWYQQKQGKSPQLLIYNANSLEDGVPSRFSGSGSGTQYSMKINSMQPEDTATYFCKQAYDVPYTFG
notes: Mouse hybridoma monoclonal antibody; also called anti-B7-H4 monoclonal antibody produced from hybridoma clone #140

What follows are binders tested against T1, B7-H4 expressed on the membrane surface … (assay: cell-based or functional assay).

Binder | 50% maximum effective concentration (EC50) of cytotoxicity (% Lysis) to MDA-MB-468 cells, LDH release, with human peripheral blood mononuclear cells, 16 hours [µg/mL]
B1 | 0.013

The binders below were run against T2, soluble human B7-H4 recombinant protein (assay: ELISA, hybridoma culture supernatant diluted 2 times on immobilized free form of B7-H4).
Method: Specifically, the free form of B7-H4 was added to a 96 well Immobilizer Amino Plate (Thermo Fisher Scientific) and incubated at room temperature for 2 hours to immobilize the free form of B7-H4 on the plate surface. Simultaneously, wells with no immobilization of the free form of B7-H4 were prepared as negative control. After incubation, the antigen that was not immobilized was removed and the wells were filled with PBS containing 3% BSA and incubated at 4° C. overnight. In this step, nonspecific binding capacity to the plate surface was blocked to produce a plate for ELISA.
The culture supernatant of each of the plurality of hybridoma lines obtained in Example 2 was 2-times diluted with PBS containing 0.05% Tween20 to prepare a supernatant sample. The buffer was removed from the wells of the aforementioned plate for ELISA and then the supernatant sample was added and incubated at room temperature for 2 hours. The plate was washed to remove the unbound antibody and then a horseradish peroxidase (HRP) labeled anti-mouse immunoglobulin antibody (GE Healthcare) was added and incubated for 1 hour. The wells were washed, then a peroxidase substrate (BD Biosciences) was added and incubated for 30 minutes, and a sulfuric acid solution at a concentration of 0.1 M or higher was added to stop the color development. Whether an antibody that recognizes B7-H4 in a supernatant sample was contained was examined by measuring the absorption of the solution in each well at a wavelength of 450 nm.

Binder | OD 450 nm [OD 450 nm]
B2 | 1.96
B3 | 1.93
B4 | 1.96
B5 | 2.02
B6 | 1.06
